According to IntAct's records for PubMed 26053850:

B1: ADP-ribosylation factor-binding protein GGA1 (Homo sapiens), Q9UJY5 (parent)
chain: MEPAMEPETLEARINRATNPLNKELDWASINGFCEQLNEDFEGPPLATRLLAHKIQSPQEWEAIQALTVLETCMKSCGKRFHDEVGKFRFLNELIKVVSPKYLGSRTSEKVKNKILELLYSWTVGLPEEVKIAEAYQMLKKQGIVKSDPKLPDDTTFPLPPPRPKNVIFEDEEKSKMLARLLKSSHPEDLRAANKLIKEMVQEDQKRMEKISKRVNAIEEVNNNVKLLTEMVMSHSQGGAAAGSSEDLMKELYQRCERMRPTLFRLASDTEDNDEALAEILQANDNLTQVINLYKQLVRGEEVNGDATAGSIPGSTSALLDLSGLDLPPAGTTYPAMPTRPGEQASPEQPSASVSLLDDELMSLGLSDPTPPSGPSLDGTGWNSFQSSDATEPPAPALAQAPSMESRPPAQTSLPASSGLDDLDLLGKTLLQQSLPPESQQVRWEKQQPTPRLTLRDLQNKSSSCSSPSSSATSLLHTVSPEPPRPPQQPVPTELSLASITVPLESIKPSNILPVTVYDQHGFRILFHFARDPLPGRSDVLVVVVSMLSTAPQPIRNIVFQSAVPKVMKVKLQPPSGTELPAFNPIVHPSAITQVLLLANPQKEKVRLRYKLTFTMGDQTYNEMGDVDQFPPPETWGSL

Variants of: B1
Details: with bace1_human BACE1, P56817
Sequence of bace1_human BACE1, P56817 (P56817 whole entry): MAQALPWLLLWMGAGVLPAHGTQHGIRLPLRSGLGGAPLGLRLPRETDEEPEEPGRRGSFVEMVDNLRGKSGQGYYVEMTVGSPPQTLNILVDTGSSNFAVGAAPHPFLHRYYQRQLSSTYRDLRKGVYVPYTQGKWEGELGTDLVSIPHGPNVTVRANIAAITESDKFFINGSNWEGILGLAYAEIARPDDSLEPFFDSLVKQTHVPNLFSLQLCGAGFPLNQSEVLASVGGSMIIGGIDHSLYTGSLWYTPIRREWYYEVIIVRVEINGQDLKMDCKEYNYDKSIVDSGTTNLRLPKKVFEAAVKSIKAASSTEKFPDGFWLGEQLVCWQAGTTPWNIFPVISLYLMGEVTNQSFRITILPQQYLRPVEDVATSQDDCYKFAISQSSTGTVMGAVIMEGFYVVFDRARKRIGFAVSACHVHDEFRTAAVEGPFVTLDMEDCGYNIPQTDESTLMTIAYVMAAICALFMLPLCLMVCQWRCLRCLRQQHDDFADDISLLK

Variant | effect of a mutation on the interaction
S355A | with no effect
S355D | with no effect
